Broadly, the Kd is the constant that tells how readily two partners part at equilibrium.

These results are taken from publication PMC7902612, “A synergetic effect of BARD1 mutations on tumorigenesis” (Nature Communications, 2021).

The assay concerns the target T1, GST-BRCA1-N (N-terminal of BRCA1, 1-147 aa) (human, UniProt P38398 1-147).
T1 construct: BRCA1, human, N-terminal residues 1-147; Cloned into pGEX-4T-1, which as far as I know puts GST at the N-terminus; also called recombinant BRCA1-N
Nature of the assay: MST; RED-NHS-labelled GST-BARD1-N or GST-BARD1^P24S-N at constant concentration (10-50 nM), twofold serial dilutions of GST-BRCA1-N; 50 mM Tris-HCl pH 7.4, 150 mM NaCl, 10 mM MgCl2, 0.05% Tween 20; 15 min at room temperature; Monolith NT.115, 20% and 40% MST power. Particulars: both partners purified.

T1 sequence (P38398 1-147): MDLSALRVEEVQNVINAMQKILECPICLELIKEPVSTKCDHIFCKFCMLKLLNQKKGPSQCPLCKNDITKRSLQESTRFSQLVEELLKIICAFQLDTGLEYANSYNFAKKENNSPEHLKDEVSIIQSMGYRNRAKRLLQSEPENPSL

B1: GST-BARD1-N (N-terminal of BARD1, 1-142 aa) (domain or fragment, human, UniProt Q99728 1-142, looked up)
chain: MPDNRQPRNRQPRIRSGNEPRSAPAMEPDGRGAWAHSRAALDRLEKLLRCSRCTNILREPVCLGGCEHIFCSNCVSDCIGTGCPVCYTPAWIQDLKINRQLDSMIQLCSKLRNLLHDNELSDLKEDKPRKSLFNDAGNKKNS
modifications: fluorescent label from the RED-NHS protein labeling kit (NanoTemper)
notes: BRCA1-associated RING-domain protein 1 (BARD1), human, N-terminal residues 1-142; Cloned into pGEX-4T-1, which as far as I know puts GST at the N-terminus
As to B1, the Kd was 890 nM.
